According to the supplement of paper PMC5998384:

What was measured:
[1] = system: HeLa Kyoto; assay: solubility in G1/S (NP-40 vs SDS abundance) (log2 ratio); higher = more soluble; details: cell cycle stage: G1/S
[2] = system: HeLa Kyoto; assay: thermal stability score vs G1/S (z-score of summed log2 fold changes over temperatures); higher = more thermally stable than in G1/S
[3] = system: HeLa Kyoto; assay: solubility change mitosis vs G1/S (difference of NP-40 vs SDS log2 ratios) (log2 ratio difference); higher = more soluble in mitosis
[4] = system: HeLa Kyoto; assay: melting temperature (median over replicates), in situ; higher = more thermally stable
[5] = cell cycle stage: early G1 (4.5 h after nocodazole release)
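Wherever melting temperature (median over replicates), in situ is given: HeLa Kyoto cells synchronized by double thymidine or nocodazole block, proteins quantified by TMT10plex mass spectrometry, three independent biological replicates.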
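Wherever solubility change mitosis vs G1/S (difference of NP-40 vs SDS log2 ratios) is given: synchronized HeLa Kyoto cells (double thymidine block for G1/S, nocodazole release for mitosis), protein amounts in NP-40 versus SDS lysates quantified by mass spectrometry, three biological replicates.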
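Wherever solubility in G1/S (NP-40 vs SDS abundance) is given: HeLa Kyoto cells arrested at G1/S by double thymidine block, proteins quantified by TMT10plex mass spectrometry in mild NP-40 versus SDS extracts, three biological replicates.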
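Wherever thermal stability score vs G1/S (z-score of summed log2 fold changes over temperatures) is given: synchronized HeLa Kyoto cells, proteins quantified by TMT10plex mass spectrometry, three biological replicates, mitosis taken 0.5 h after nocodazole release, G1/S directly after double thymidine block.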

Sequence | solubility in G1/S (log2) [1] | thermal stability score [2, 5] | thermal stability score ([2]; cell cycle stage: mitosis) | solubility change mitosis (log2) [3] | melting temperature ([4]; cell cycle stage: G1/S) [°C] | melting temperature ([4]; cell cycle stage: mitosis) [°C]
MAPSGSLAVPLAVLVLLLWGAPWTHGRRSNVRVITDENWRELLEGDWMIEFYAPWCPACQNLQPEWESFAEWGEDLEVNIAKVDVTEQPGLSGRFIITALPTIYHCKDGEFRRYQGPRTKKDFINFISDKEWKSIEPVSSWFGPGSVLMSSMSALFQLSMWIRTCHNYFIEDLGLPVWGSYTVFALATLFSGLLLGLCMIFVADCLCPSKRRRPQPYPYPSKKLLSESAQPLKKVEEEQEADEEDVSEEEAESKEGTNKDFPQNAIRQRSLGPSLATDKS [TMX1] | -0.0895 | 0.556 | 1.24 | -0.034 | 54.7 | 55.9
MAPWPPKGLVPAMLWGLSLFLNLPGPIWLQPSPPPQSSPPPQPHPCHTCRGLVDSFNKGLERTIRDNFGGGNTAWEEENLSKYKDSETRLVEVLEGVCSKSDFECHRLLELSEELVESWWFHKQQEAPDLFQWLCSDSLKLCCPAGTFGPSCLPCPGGTERPCGGYGQCEGEGTRGGSGHCDCQAGYGGEACGQCGLGYFEAERNASHLVCSACFGPCARCSGPEESNCLQCKKGWALHHLKCVDIDECGTEGANCGADQFCVNTEGSYECRDCAKACLGCMGAGPGRCKKCSPGYQQVGSKCLDVDECETEVCPGENKQCENTEGGYRCICAEGYKQMEGICVKEQIPESAGFFSEMTEDELVVLQQMFFGIIICALATLAAKGDLVFTAIFIGAVAAMTGYWLSERSDRVLEGFIKGR [CRELD1] | -0.215 | 0.91 | 1.48 | -0.0647 | 53.8 | 53
MAPYSLLVTRLQKALGVRQYHVASVLCQRAKVAMSHFEPNEYIHYDLLEKNINIVRKRLNRPLTLSEKIVYGHLDDPASQEIERGKSYLRLRPDRVAMQDATAQMAMLQFISSGLSKVAVPSTIHCDHLIEAQVGGEKDLRRAKDINQEVYNFLATAGAKYGVGFWKPGSGIIHQIILENYAYPGVLLIGTDSHTPNGGGLGGICIGVGGADAVDVMAGIPWELKCPKVIGVKLTGSLSGWSSPKDVILKVAGILTVKGGTGAIVEYHGPGVDSISCTGMATICNMGAEIGATTSVFPYNHRMKKYLSKTGREDIANLADEFKDHLVPDPGCHYDQLIEINLSELKPHINGPFTPDLAHPVAEVGKVAEKEGWPLDIRVGLIGSCTNSSYEDMGRSAAVAKQALAHGLKCKSQFTITPGSEQIRATIERDGYAQILRDLGGIVLANACGPCIGQWDRKDIKKGEKNTIVTSYNRNFTGRNDANPETHAFVTSPEIVTALAIAGTLKFNPETDYLTGTDGKKFRLEAPDADELPKGEFDPGQDTYQHPPKDSSGQHVDVSPTSQRLQLLEPFDKWDGKDLEDLQILIKVKGKCTTDHISAAGPWLKFRGHLDNISNNLLIGAINIENGKANSVRNAVTQEFGPVPDTARYYKKHGIRWVVIGDENYGEGSSREHAALEPRHLGGRAIITKSFARIHETNLKKQGLLPLTFADPADYNKIHPVDKLTIQGLKDFTPGKPLKCIIKHPNGTQETILLNHTFNETQIEWFRAGSALNRMKELQQ [ACO2] | 0.183 | 0.706 | 0.579 | -0.179 | 51.3 | 51.3
MAQAKINAKANEGRFCRSSSMADRSSRLLESLDQLELRVEALREAATAVEQEKEILLEMIHSIQNSQDMRQISDGEREELNLTANRLMGRTLTVEVSVETIRNPQQQESLKHATRIIDEVVNKFLDDLGNAKSHLMSLYSACSSEVPHGPVDQKFQSIVIGCALEDQKKIKRRLETLLRNIENSDKAIKLLEHSKGAGSKTLQQNAESRFN [BAG2] | 0.345 | -2.02 | -3.48 | 0.474 | 50.9 | 50.9
MAQCVQSVQELIPDSFVPCVAALCSDEAERLTRLNHLSFAELLKPFSRLTSEVHMRDPNNQLHVIKNLKIAVSNIVTQPPQPGAIRKLLNDVVSGSQPAEGLVANVITAGDYDLNISATTPWFESYRETFLQSMPALDHEFLNHYLACMLVASSSEAEPVEQFSKLSQEQHRIQHNSDYSYPKWFIPNTLKYYVLLHDVSAGDEQRAESIYEEMKQKYGTQGCYLLKINSRTSNRASDEQIPDPWSQYLQKNSIQNQESYEDGPCTITSNKNSDNNLLSLDGLDNEVKDGLPNNFRAHPLQLEQSSDPSNSIDGPDHLRSASSLHETKKGNTGIIHGACLTLTDHDRIRQFIQEFTFRGLLPHIEKTIRQLNDQLISRKGLSRSLFSATKKWFSGSKVPEKSINDLKNTSGLLYPPEAPELQIRKMADLCFLVQHYDLAYSCYHTAKKDFLNDQAMLYAAGALEMAAVSAFLQPGAPRPYPAHYMDTAIQTYRDICKNMVLAERCVLLSAELLKSQSKYSEAAALLIRLTSEDSDLRSALLLEQAAHCFINMKSPMVRKYAFHMILAGHRFSKAGQKKHALRCYCQAMQVYKGKGWSLAEDHINFTIGRQSYTLRQLDNAVSAFRHILINESKQSAAQQGAFLREYLYVYKNVSQLSPDGPLPQLPLPYINSSATRVFFGHDRRPADGEKQAATHVSLDQEYDSESSQQWRELEEQVVSVVNKGVIPSNFHPTQYCLNSYSDNSRFPLAVVEEPITVEVAFRNPLKVLLLLTDLSLLWKFHPKDFSGKDNEEVKQLVTSEPEMIGAEVISEFLINGEESKVARLKLFPHHIGELHILGVVYNLGTIQGSMTVDGIGALPGCHTGKYSLSMSVRGKQDLEIQGPRLNNTKEEKTSVKYGPDRRLDPIITEEMPLLEVFFIHFPTGLLCGEIRKAYVEFVNVSKCPLTGLKVVSKRPEFFTFGGNTAVLTPLSPSASENCSAYKTVVTDATSVCTALISSASSVDFGIGTGSQPEVIPVPLPDTVLLPGASVQLPMWLRGPDEEGVHEINFLFYYESVKKQPKIRHRILRHTAIICTSRSLNVRATVCRSNSLENEEGRGGNMLVFVDVENTNTSEAGVKEFHIVQVSSSSKHWKLQKSVNLSENKDTKLASREKGKFCFKAIRCEKEEAATQSSEKYTFADIIFGNEQIISSASPCADFFYRSLSSELKKPQAHLPVHTEKQSTEDAVRLIQKCSEVDLNIVILWKAYVVEDSKQLILEGQHHVILRTIGKEAFSYPQKQEPPEMELLKFFRPENITVSSRPSVEQLSSLIKTSLHYPESFNHPFHQKSLCLVPVTLLLSNCSKADVDVIVDLRHKTTSPEALEIHGSFTWLGQTQYKLQLKSQEIHSLQLKACFVHTGVYNLGTPRVFAKLSDQVTVFETSQQNSMPALIIISNV [TRAPPC8] | -0.261 | -0.214 | -0.392 | -0.114 | 51.5 | 49.9
MAQFDTEYQRLEASYSDSPPGEEDLLVHVAEGSKSPWHHIENLDLFFSRVYNLHQKNGFTCMLIGEIFELMQFLFVVAFTTFLVSCVDYDILFANKMVNHSLHPTEPVKVTLPDAFLPAQVCSARIQENGSLITILVIAGVFWIHRLIKFIYNICCYWEIHSFYLHALRIPMSALPYCTWQEVQARIVQTQKEHQICIHKRELTELDIYHRILRFQNYMVALVNKSLLPLRFRLPGLGEAVFFTRGLKYNFELILFWGPGSLFLNEWSLKAEYKRGGQRLELAQRLSNRILWIGIANFLLCPLILIWQILYAFFSYAEVLKREPGALGARCWSLYGRCYLRHFNELEHELQSRLNRGYKPASKYMNCFLSPLLTLLAKNGAFFAGSILAVLIALTIYDEDVLAVEHVLTTVTLLGVTVTVCRSFIPDQHMVFCPEQLLRVILAHIHYMPDHWQGNAHRSQTRDEFAQLFQYKAVFILEELLSPIVTPLILIFCLRPRALEIIDFFRNFTVEVVGVGDTCSFAQMDVRQHGHPQWLSAGQTEASVYQQAEDGKTELSLMHFAITNPGWQPPRESTAFLGFLKEQVQRDGAAASLAQGGLLPENALFTSIQSLQSESEPLSLIANVVAGSSCRGPPLPRDLQGSRHRAEVASALRSFSPLQPGQAPTGRAHSTMTGSGVDARTASSGSSVWEGQLQSLVLSEYASTEMSLHALYMHQLHKQQAQAEPERHVWHRRESDESGESAPDEGGEGARAPQSIPRSASYPCAAPRPGAPETTALHGGFQRRYGGITDPGTVPRVPSHFSRLPLGGWAEDGQSASRHPEPVPEEGSEDELPPQVHKV [ATG9A] | 0.0202 | -1.02 | -0.681 | -0.221 | 52 | 51.8
MAQKPLRLLACGDVEGKFDILFNRVQAIQKKSGNFDLLLCVGNFFGSTQDAEWEEYKTGIKKAPIQTYVLGANNQETVKYFQDADGCELAENITYLGRKGIFTGSSGLQIVYLSGTESLNEPVPGYSFSPKDVSSLRMMLCTTSQFKGVDILLTSPWPKCVGNFGNSSGEVDTKKCGSALVSSLATGLKPRYHFAALEKTYYERLPYRNHIILQENAQHATRFIALANVGNPEKKKYLYAFSIVPMKLMDAAELVKQPPDVTENPYRKSGQEASIGKQILAPVEESACQFFFDLNEKQGRKRSSTGRDSKSSPHPKQPRKPPQPPGPCWFCLASPEVEKHLVVNIGTHCYLALAKGGLSDDHVLILPIGHYQSVVELSAEVVEEVEKYKATLRRFFKSRGKWCVVFERNYKSHHLQLQVIPVPISCSTTDDIKDAFITQAQEQQIELLEIPEHSDIKQIAQPGAAYFYVELDTGEKLFHRIKKNFPLQFGREVLASEAILNVPDKSDWRQCQISKEDEETLARRFRKDFEPYDFTLDD [CWF19L1] | 0.0176 | 0.0624 | 0.97 | -0.143 | 50.4 | 50.7
MAQQQMTSSQKALMLELKSLQEEPVEGFRITLVDESDLYNWEVAIFGPPNTLYEGGYFKAHIKFPIDYPYSPPTFRFLTKMWHPNIYENGDVCISILHPPVDDPQSGELPSERWNPTQNVRTILLSVISLLNEPNTFSPANVDASVMFRKWRDSKGKDKEYAEIIRKQVSATKAEAEKDGVKVPTTLAEYCIKTKVPSNDNSSDLLYDDLYDDDIDDEDEEEEDADCYDDDDSGNEES [UBE2R2] | 0.302 | -2.34 | -0.967 | 0.134 | 51.9 | 52.9
MAQVLRGTVTDFPGFDERADAETLRKAMKGLGTDEESILTLLTSRSNAQRQEISAAFKTLFGRDLLDDLKSELTGKFEKLIVALMKPSRLYDAYELKHALKGAGTNEKVLTEIIASRTPEELRAIKQVYEEEYGSSLEDDVVGDTSGYYQRMLVVLLQANRDPDAGIDEAQVEQDAQALFQAGELKWGTDEEKFITIFGTRSVSHLRKVFDKYMTISGFQIEETIDRETSGNLEQLLLAVVKSIRSIPAYLAETLYYAMKGAGTDDHTLIRVMVSRSEIDLFNIRKEFRKNFATSLYSMIKGDTSGDYKKALLLLCGEDD [ANXA5] | 0.363 | 5.64 | 5.5 | 0.0486 | 49.4 | 49.4
MARAGPAWLLLAIWVVLPSWLSSAKVSSLIERISDPKDLKKLLRTRNNVLVLYSKSEVAAENHLRLLSTVAQAVKGQGTICWVDCGDAESRKLCKKMKVDLSPKDKKVELFHYQDGAFHTEYNRAVTFKSIVAFLKDPKGPPLWEEDPGAKDVVHLDSEKDFRRLLKKEEKPLLIMFYAPWCSMCKRMMPHFQKAATQLRGHAVLAGMNVYSSEFENIKEEYSVRGFPTICYFEKGRFLFQYDNYGSTAEDIVEWLKNPQPPQPQVPETPWADEGGSVYHLTDEDFDQFVKEHSSVLVMFHAPWCGHCKKMKPEFEKAAEALHGEADSSGVLAAVDATVNKALAERFHISEFPTLKYFKNGEKYAVPVLRTKKKFLEWMQNPEAPPPPEPTWEEQQTSVLHLVGDNFRETLKKKKHTLVMFYAPWCPHCKKVIPHFTATADAFKDDRKIACAAVDCVKDKNQDLCQQEAVKGYPTFHYYHYGKFAEKYDSDRTELGFTNYIRALREGDHERLGKKKEEL [PDIA5] | -0.136 | 2.7 | 2.84 | -0.0327 | 53.8 | 54.5
